Results from US20230279018A1, “AP[…] INHIBITION” (priority 2020, published 2023).

Experiments:
[1] = biological target: T1, Plasmodium vivax cytoplasmic phenylalanyl-tRNA synthetase (PvcFRS) beta subunit (PVX_090880) (Plasmodium vivax, UniProt A5K464 1-617); assay: analytical gel filtration (Superdex 200) of co-expressed, co-purified alpha and beta subunits
T1 construct: Said to be full-length; Tag or fusion residues from the vector are not described; Two copies stand in the α2β2 heterotetramer; also called PvcFRS β subunit; PvFRS β subunit
T1 sequence: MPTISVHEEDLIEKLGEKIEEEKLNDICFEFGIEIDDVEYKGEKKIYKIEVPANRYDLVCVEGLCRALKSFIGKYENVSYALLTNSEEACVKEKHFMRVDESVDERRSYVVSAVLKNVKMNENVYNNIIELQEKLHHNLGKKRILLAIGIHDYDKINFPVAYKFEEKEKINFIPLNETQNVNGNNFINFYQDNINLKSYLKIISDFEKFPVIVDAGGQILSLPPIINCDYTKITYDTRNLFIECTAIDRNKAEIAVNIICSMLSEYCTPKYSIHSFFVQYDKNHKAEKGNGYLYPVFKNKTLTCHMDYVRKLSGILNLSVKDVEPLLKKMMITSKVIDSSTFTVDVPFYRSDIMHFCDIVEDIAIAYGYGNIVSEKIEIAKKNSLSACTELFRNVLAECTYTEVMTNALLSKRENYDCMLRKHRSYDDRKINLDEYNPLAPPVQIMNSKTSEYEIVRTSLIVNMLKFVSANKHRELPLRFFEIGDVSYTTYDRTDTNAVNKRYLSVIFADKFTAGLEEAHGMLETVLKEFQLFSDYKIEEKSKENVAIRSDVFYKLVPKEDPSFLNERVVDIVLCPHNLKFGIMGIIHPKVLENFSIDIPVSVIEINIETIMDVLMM

[2] = biological target: T2, Plasmodium falciparum cytoplasmic phenylalanyl-tRNA synthetase (PfcFRS) beta subunit (Plasmodium falciparum); assay: SDS-PAGE of the final purified protein (co-purification of the α and β subunits)
T2 construct: Tags are not described; also called PfcFRS β subunit; Pf-β
T2 chain: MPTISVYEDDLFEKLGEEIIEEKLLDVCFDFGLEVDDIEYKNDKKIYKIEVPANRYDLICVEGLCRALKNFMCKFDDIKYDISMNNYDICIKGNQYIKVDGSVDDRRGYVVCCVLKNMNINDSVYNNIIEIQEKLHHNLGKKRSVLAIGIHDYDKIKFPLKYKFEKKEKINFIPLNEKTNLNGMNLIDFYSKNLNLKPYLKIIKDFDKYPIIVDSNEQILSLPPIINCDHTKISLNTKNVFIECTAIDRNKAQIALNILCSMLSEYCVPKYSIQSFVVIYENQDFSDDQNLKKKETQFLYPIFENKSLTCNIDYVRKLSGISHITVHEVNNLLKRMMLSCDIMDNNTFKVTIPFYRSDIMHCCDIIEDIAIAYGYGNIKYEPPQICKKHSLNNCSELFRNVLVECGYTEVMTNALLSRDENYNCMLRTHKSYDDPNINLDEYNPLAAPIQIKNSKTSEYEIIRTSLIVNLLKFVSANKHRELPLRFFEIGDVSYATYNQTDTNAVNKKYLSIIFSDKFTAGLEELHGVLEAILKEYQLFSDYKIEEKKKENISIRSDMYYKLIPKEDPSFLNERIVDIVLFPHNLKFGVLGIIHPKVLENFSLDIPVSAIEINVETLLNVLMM

B1: Plasmodium vivax cytoplasmic phenylalanyl-tRNA synthetase (PvcFRS) alpha subunit (PVX_081300) (enzyme)
chain: MQAKAQEEQKGEELSQFLQALEEEFALCQEGGGDKREADGPSLENAEAEELANRRAYYLQLKEERNVLVEESKHVTSLHMSSKHNIEHAKVLGMAKKLETLYYVVNHVRSFNTYQLTEEGKEYLRDGSPEHVTLRYVMEQEGCTLEDLKKLFGKKGEIGLNINLKKKKIELRKSDKRLFPHVEGSAHSLVDETRCYLQKVEAHGNDEGALVSHLKGILPPEKGEKKEEDEANNLIKELKKRKLIEAKKISYIYIIRTNLFTKEIKKQITDLTYLLIKNEEYKKYQVKKYNFFSSGKKMNKGNIHLLIRQMRTFKDVFVSLGFEEMNTHNYVESSFWCFDALYIPQQHPSRDLQDTFFIKVPEMCQEEFTDQSYIENVKRVHSVGDYGSFGWNYQWELKSTKKNVLRTHTTANSCRALFQLAKEYQKTGSIIPKKFFSIDRVFRNENLDSTHLAEFHQVEGLIIDRNLGLSHLIGTLSAFYKYIGISKLRFKPTFNPYTEPSMEVYGYHEENKKWLEVGNSGIFRPEMLRAMGFPPEVSVIAWGLSLERPTMIKYSIRNIRDLFGYRSVI
notes: Said to be full-length; Tag residues from the vector are not described; Two copies stand in the α2β2 heterotetramer; Residues 1-270 were disordered in the crystal; also called PvcFRS α subunit; PvFRS α subunit
binding result [1]: binds

B2: Plasmodium falciparum cytoplasmic phenylalanyl-tRNA synthetase (PfcFRS) alpha subunit (enzyme)
chain: MSTNNVEEKKNEELYNLLNILEEEFNLSKIENKNNNKNDDGDDDDVNKREDNNNNEYYKKLKDEKGLDVLINEYTTSLKISKKYNIDHNKVMGMIKKLETLYYIINLIKSFNTYHLSDEGKQYLKEGSPEFIVIKYVIQNNKCTLEDLKKNLGKIGDIGLNTNLKNRTIQLNKADKCLTCNCNLHDIQDFTQIYLDIINQYGHDEELLFAHLKNKNHTKNALNNNEMKNSCKDNNIINNLIQDLKKRKLLEIKKNSYSHVIKTSIFKKDIKKQITDINYLLLKNEEYKKYDIKKYNFFSSGKKINKGNIHLLTKQMRTFKEIFFSLGFEEMETHNYVESSFWCFDALYIPQQHPSRDLQDTFFIKEPETCIDKFVDTEYIDNIKRVHTHGDYGSFGWNYKWKLEESKKNVLRTHTTANSCRALFKLAKEYKEAGCIKPKKYFSIDRVFRNENLDSTHLAEFHQVEGLIIDKNIGLSHLIGTLAAFYKHIGIHKLKFKPTFNPYTEPSMEIYGYHEQSKKWLEVGNSGIFRPEMLRSMGFSEEVSVIAWGLSLERPTMIKYNIKNIRDLFGYKSVV
notes: Tags are not described; also called PfcFRS α subunit
binding result [2]: binds
